Molecular target: T1, SARS-CoV-2 RBD of the Wuhan strain (Acro Biosystems SPD-C82E9-25) (SARS-CoV-2, Wuhan strain, UniProt P0DTC2)
T1 construct: source: bought: Acro Biosystems
Experiment: SPR; Biacore 8K+, […]; 10 mM HEPES pH 7.4, 150 mM NaCl, 3 mM EDTA, 0.05% Tween 20; […]
Conditions: both partners purified

B1: MB043_CL39 (antibody, V domains shown)
VH: EVQLVETGGGLIHPGGSLRLSCAASEFIVSYNYMSWVRQAPGKGLEWVSVIYSGGSTFYADAVKGRFTISRDSSKNTLDLLMNSLRVEDTAVYYCARVLPSNTDYFDYWGQGILVTVSS
VL: QSVLTQPPSVSGATGQRVTISCTGSNSNIGAGSDVHWYQQLPGAAPKLLIYVNNNRPSGVPDRFSGSKSGTSASLAITGLQAEDEADYYCQSYDSSLSGYVFGTGTKVTVL
- fold higher affinity than MB027_D06L: > 200 fold

Source: publication PMC12148588 (eBioMedicine, 2025)
